Laboratory results: IntAct's records for PubMed 11134025

B1: Protein kinase C-like 3 (Caenorhabditis elegans), Q19266 (parent)
chain: MSSPTSLEEDGDIKLKTRFQGQVVVLYARPPLILDDFFALLKDACKQHKKQDITVKWIDEDGDPISIDSQMELDEAVRCLNSSQEAELNIHVFVGKPELPGLPCQGEDKTVYRRGARRWKKIYLYNGHRFQAKRLNRRIQCFICHDYIWGIGRQGFRCVDCRLCVHKKCHRHVRTHCGQALQGPNIIPMAPASGSLKGARSNTSSSTTRSGGGIDNGAFHEHEIESPGSTSHDASRAMNGNGSSKWAVSLNDFRLLTVIGRGSYAKVVQAEHVSTRQIYAIKIIKKEMFNEDEDIDWVQTEKSVFEAASNYPFLVGLHSCFQTESRLFFVIEFVPGGDLMFHMQQQRKLPEEHARFYSGEIILALHFLHSRGIIYRDLKLDNVLIDAEGHIKLTDYGMCKENIKDGDLTSTFCGTPNYIAPEILRGDEYGFSVDWWALGVLMFEMMAGRSPFDIVGMQNSEENTEDYLFQIILERQIRIPRSLSVRASGILKGFLNKDPTERLGCKLDINEGLRDMKEHQFFRGFIDWEALEQKAVAPPYHPAVESDRDLTHFDHQFTDELPQLSPDNPDVIARIDQSEFDGFEYVNPLQMSREDSV
partner: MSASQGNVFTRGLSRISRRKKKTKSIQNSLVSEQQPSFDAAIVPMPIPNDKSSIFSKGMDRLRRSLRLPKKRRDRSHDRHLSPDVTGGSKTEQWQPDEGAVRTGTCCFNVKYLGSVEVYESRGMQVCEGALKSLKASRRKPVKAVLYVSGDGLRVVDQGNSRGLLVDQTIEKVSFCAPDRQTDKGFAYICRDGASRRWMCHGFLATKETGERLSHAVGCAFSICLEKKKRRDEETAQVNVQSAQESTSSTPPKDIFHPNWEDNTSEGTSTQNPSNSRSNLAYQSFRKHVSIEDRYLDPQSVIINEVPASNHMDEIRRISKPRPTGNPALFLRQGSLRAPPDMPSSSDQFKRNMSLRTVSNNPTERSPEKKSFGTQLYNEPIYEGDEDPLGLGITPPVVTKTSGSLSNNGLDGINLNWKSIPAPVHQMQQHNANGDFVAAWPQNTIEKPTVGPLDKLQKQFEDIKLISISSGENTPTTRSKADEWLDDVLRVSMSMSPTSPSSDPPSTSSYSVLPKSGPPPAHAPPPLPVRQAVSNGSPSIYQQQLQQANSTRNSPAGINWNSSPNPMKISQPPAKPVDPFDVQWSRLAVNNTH

Variants of: B1
Conditions: with num-1, Q9XTY6-1

effect of a mutation on the interaction	Variant
decreasing interaction	F219A
decreasing interaction	N216A
decreasing interaction	I214A
